Assay results taken from PMC9187738, “Live imaging-based assay for visualising species-specific interactions in gamete adhesion molecules” (Scientific Reports, 2022).

T1: mouse mCherry-JUNO (mouse, UniProt Q9EQF4 20-222)
T1 construct: JUNO, mouse; CDS amplified from mouse cDNA; also called mouse JUNO; source: BHK-21 cells, transfected, on cells (mifepristone-inducible or cytomegalovirus promoter); also HEK293T cells, transfected, on cells; not shown: mCherry, internal (just after the signal peptide), kept
T1 sequence (looked up): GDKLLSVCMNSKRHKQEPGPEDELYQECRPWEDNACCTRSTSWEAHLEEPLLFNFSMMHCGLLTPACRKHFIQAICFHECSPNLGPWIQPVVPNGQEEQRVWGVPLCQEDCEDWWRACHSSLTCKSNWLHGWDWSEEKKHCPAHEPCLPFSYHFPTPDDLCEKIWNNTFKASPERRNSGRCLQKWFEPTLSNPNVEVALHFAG

B1: mouse IZUMO1-Venus (natural protein, UniProt Q9D9J7 22-397, looked up)
chain: CIKCDQFVTDALKTFENTYLNDHLPHDIHKNVMRMVNHEVSSFGVVTSAEDSYLGAVDENTLEQATWSFLKDLKRITDSDLKGELFIKELLWMLRHQKDIFNNLARQFQKEVLCPNKCGVMSQTLIWCLKCEKQLHICRKSLDCGERHIEVHRSEDLVLDCLLSWHRASKGLTDYSFYRVWENSSETLIAKGKEPYLTKSMVGPEDAGNYRCVLDTINQGHATVIRYDVTVLPPKHSEENQPPNIITQEEHETPVHVTPQTPPGQEPESELYPELHPELYPELIPTVAQNPEKKMKTRLLILLTLGFVVLVASIIISVLHFRKVSAKLKNASDEVKPTASGSKSDQSLSQQMGLKKASQADFNSDYSGDKSEATEN
notes: IZUMO1, mouse; CDS amplified from mouse cDNA; The methods say Venus or mTurquoise2 for IZUMO1, SPACA6 and CD9; the parent of the W148A mutant is named IZUMO-Venus; also called IZUMO-Venus; source: BHK-21 cells, transfected, on cells (mifepristone-inducible or cytomegalovirus promoter); also HEK293T cells, transfected, on cells; not shown: Venus, C-terminal, kept
B2: human IZUMO1 (natural protein, UniProt Q8IYV9 22-350, looked up)
chain: CVICDPSVVLALKSLEKDYLPGHLDAKHHKAMMERVENAVKDFQELSLNEDAYMGVVDEATLQKGSWSLLKDLKRITDSDVKGDLFVKELFWMLHLQKETFATYVARFQKEAYCPNKCGVMLQTLIWCKNCKKEVHACRKSYDCGERNVEVPQMEDMILDCELNWHQASEGLTDYSFYRVWGNNTETLVSKGKEATLTKPMVGPEDAGSYRCELGSVNSSPATIINFHVTVLPKMIKEEKPSPNIVTPGEATTESSISLQPLQPEKMLASRLLGLLICGSLALITGLTFAIFRRRKVIDFIKSSLFGLGSGAAEQTQVPKEKATDSRQQ
notes: IZUMO1, human; gene synthesised artificially (Integrated DNA technologies); also called IZUMO1 Human; source: BHK-21 cells, transfected, on cells; also HEK293T cells, transfected, on cells; not shown: Venus or mTurquoise2, C-terminal, kept

What was measured:
[1] = molecular target: T1, mouse mCherry-JUNO; test: live imaging-based adhesion molecule (LIAM) assay; BHK cells, non-inducible expression (cytomegalovirus promoter); separately transfected cells mixed in equal amounts 4 h after transfection, incubated 20 h, imaged every 6 min for 12 h at 40x, 37 °C, 5% CO2; read-outs: accumulation at the cell interface and translocation to the opposite cell, % of contacting cell pairs; conditions: partners not purified
[2] = molecular target: T2, human JUNO (human, UniProt A6ND01 20-228); test: as above; conditions: partners not purified
T2 construct: JUNO, human; gene synthesised artificially (Integrated DNA technologies); also called JUNO Human; source: BHK-21 cells, transfected, on cells; not shown: mCherry, internal (just after the signal peptide), kept
T2 sequence (A6ND01 20-228): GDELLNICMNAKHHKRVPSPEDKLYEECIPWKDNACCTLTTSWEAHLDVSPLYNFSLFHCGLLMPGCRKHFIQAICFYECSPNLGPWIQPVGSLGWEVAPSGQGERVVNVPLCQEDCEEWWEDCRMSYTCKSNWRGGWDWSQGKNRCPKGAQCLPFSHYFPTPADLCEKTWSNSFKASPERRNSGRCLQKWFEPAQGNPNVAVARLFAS

Binder | IZUMO1 accumulation (% of contacting cell pairs) [1] [%] | IZUMO1 accumulation (% of contacting cell pairs) [2] [%]
B1 | 72 | 50
B2 | – | 27
